The target of experiment [1] is TSH (thyroid stimulating hormone) in HISCL (trademark) TSH Calibrators C0 to C5 (Sysmex Corporation) (UniProt P01215). Description: chemiluminescent sandwich ELISA on D-tamavidin 2-immobilized plate; TSH 10 µIU/mL. (In general: ELISA stands for enzyme-linked immunosorbent assay.)
The target is the same in experiment [2]. Nature of the experiment: chemiluminescent sandwich ELISA on D-streptavidin-immobilized plate; TSH 2 µIU/mL.
For experiment [3] the target is unchanged. Description: chemiluminescent sandwich ELISA on D-streptavidin-immobilized plate; TSH 10 µIU/mL.
The target is the same in experiment [4]. Description: chemiluminescent sandwich ELISA on D-tamavidin 2-immobilized plate; TSH 2 µIU/mL.
Experiment [5] has the same target. Nature of the experiment: chemiluminescent sandwich ELISA on D-streptavidin-immobilized plate; TSH 200 µIU/mL.
The target is the same in experiment [6]. Nature of the experiment: chemiluminescent sandwich ELISA on D-tamavidin 2-immobilized plate; TSH 120 µIU/mL.
Experiment [7] shares this target. Nature of the experiment: chemiluminescent sandwich ELISA on D-streptavidin-immobilized plate; TSH 120 µIU/mL.
Experiment [8] shares this target. Description: chemiluminescent sandwich ELISA on D-tamavidin 2-immobilized plate; TSH 0 µIU/mL (blank).
Experiment [9] has the same target. Description: chemiluminescent sandwich ELISA on D-tamavidin 2-immobilized plate; TSH 50 µIU/mL, five samples.
Experiment [10] shares this target. Nature of the experiment: chemiluminescent sandwich ELISA on D-streptavidin-immobilized plate; TSH 50 µIU/mL, five samples.
Experiment [11] has the same target. Nature of the experiment: chemiluminescent sandwich ELISA on D-tamavidin 2-immobilized plate; TSH 50 µIU/mL.
Experiment [12] has the same target. Nature of the experiment: chemiluminescent sandwich ELISA on D-streptavidin-immobilized plate; TSH 0 µIU/mL (blank).
The target is the same in experiment [13]. Description: chemiluminescent sandwich ELISA on D-streptavidin-immobilized plate; TSH 50 µIU/mL.
Experiment [14] has the same target. Nature of the experiment: chemiluminescent sandwich ELISA on D-tamavidin 2-immobilized plate; TSH 200 µIU/mL.

Chain of TSH (thyroid stimulating hormone) in HISCL (trademark) TSH Calibrators C0 to C5 (Sysmex Corporation) (P01215 25-116, chain 1 of 2): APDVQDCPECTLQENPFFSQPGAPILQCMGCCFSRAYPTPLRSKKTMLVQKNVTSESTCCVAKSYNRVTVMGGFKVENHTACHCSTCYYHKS
Chain of TSH (thyroid stimulating hormone) in HISCL (trademark) TSH Calibrators C0 to C5 (Sysmex Corporation) (P01222 21-132, chain 2 of 2, further chain): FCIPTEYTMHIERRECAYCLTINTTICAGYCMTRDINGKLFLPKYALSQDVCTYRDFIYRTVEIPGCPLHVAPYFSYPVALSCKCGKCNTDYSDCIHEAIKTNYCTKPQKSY

In the case of “L-biotin-labeled TSH antibody (thyroid stimulating hormone antibody T2-194, KITAYAMA LABES CO., LTD., labeled with L-biotin-AC5-OSu)”, the Count value in experiment [1] worked out at 150000 count; in [2] it was 17300 count; in experiment [3], 80400 count; in [4] it was 35300 count; in experiment [5] it was 1.26e+06 count; in [6], 1.32e+06 count. The Count value in experiment [7] was determined as 967000 count; in [8] it was 363 count; in [11], 700000 count; in experiment [12], 1010 count; in experiment [13], 442000 count; in experiment [14], 1.58e+06 count. Besides, the results for the Count value (average of five samples) in [9] and in [10] were 668000 count and 410000 count, respectively.

The values above are taken from patent publication US20230288411A1, “POLYPEPTIDE, MULTIMER, SOLID PHASE, MEASUREMENT METHOD FOR TEST SUBSTANCE, AND REAGENT KIT” (SYSMEX CORPORATION, priority 2020, published 2023).
